Laboratory results: paper PMC5797217, “UFD-2 is an adaptor-assisted E3 ligase targeting unfolded proteins” (Nature Communications, 2018)
Blank lines part the entries; values can stand above or below the binder they belong to.

Assays:
[1] = target: the molecule itself; experiment: crystal structure; crystal form UNC-45_(717), space group P6_(1)22, 3.8 Å; molecules form filaments in the crystal lattice
[2] = target: T1, UNC-45 full-length, His6-tagged (C. elegans, UniProt G5EG62 1-961); experiment: pull-down; three proteins: His6-tagged UNC-45 pre-incubated with myosin (MHC-B motor domain) 60 min 27 °C, then with Strep-UFD-2 60 min 30 °C; Strep-Tactin beads; 5 µM protein; 20 mM Tris pH 7.5, 50 mM NaCl; Coomassie; settings: both partners purified
T1 construct: UNC-45, C. elegans, full-length (961 residues by the printed limits of the deletion constructs); also called UNC-45-His6; wild-type, full-length protein; source: E. coli BL21-DE3-RIL, purified (NiNTA, SEC); not shown: His6, C-terminal, kept
T1 sequence (looked up): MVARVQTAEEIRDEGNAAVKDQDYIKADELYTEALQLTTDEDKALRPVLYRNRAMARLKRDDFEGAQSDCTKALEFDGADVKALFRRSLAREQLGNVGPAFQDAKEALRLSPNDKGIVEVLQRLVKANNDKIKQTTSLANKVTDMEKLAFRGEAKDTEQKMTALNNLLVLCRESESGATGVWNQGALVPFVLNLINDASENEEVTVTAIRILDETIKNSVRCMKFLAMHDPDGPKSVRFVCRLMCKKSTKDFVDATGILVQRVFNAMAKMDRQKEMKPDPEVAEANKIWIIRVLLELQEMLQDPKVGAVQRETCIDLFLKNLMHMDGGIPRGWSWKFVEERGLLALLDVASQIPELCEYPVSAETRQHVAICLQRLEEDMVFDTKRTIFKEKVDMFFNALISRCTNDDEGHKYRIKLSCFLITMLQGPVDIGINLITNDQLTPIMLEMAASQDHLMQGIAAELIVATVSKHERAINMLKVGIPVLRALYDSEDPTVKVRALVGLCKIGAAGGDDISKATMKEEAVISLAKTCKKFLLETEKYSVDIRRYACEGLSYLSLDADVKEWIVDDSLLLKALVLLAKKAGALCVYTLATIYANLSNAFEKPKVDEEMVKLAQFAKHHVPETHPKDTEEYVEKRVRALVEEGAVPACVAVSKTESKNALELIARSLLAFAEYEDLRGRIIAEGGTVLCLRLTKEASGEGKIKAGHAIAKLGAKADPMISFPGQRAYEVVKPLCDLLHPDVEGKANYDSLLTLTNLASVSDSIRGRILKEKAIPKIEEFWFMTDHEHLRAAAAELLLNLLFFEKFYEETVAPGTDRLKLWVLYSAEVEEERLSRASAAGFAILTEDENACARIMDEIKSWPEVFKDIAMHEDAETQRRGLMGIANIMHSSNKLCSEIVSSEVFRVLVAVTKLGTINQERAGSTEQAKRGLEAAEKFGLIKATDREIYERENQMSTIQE

B1: UNC-45 wild type, crystallised (crystal form UNC-45_(717)) (natural protein, C. elegans, UniProt G5EG62 1-961, looked up)
chain: T1 sequence (looked up)
notes: UNC-45, C. elegans, wild-type full-length protein used for crystallisation
binding result [1]: binds

binding result [2]: binds
B2: C. elegans MHC-B motor domain (1-790), His6-tagged (domain or fragment, UniProt P02566 1-790, looked up)
chain: MEHEKDPGWQYLRRTREQVLEDQSKPYDSKKNVWIPDPEEGYLAGEITATKGDQVTIVTARGNEVTLKKELVQEMNPPKFEKTEDMSNLSFLNDASVLHNLRSRYAAMLIYTYSGLFCVVINPYKRLPIYTDSCARMFMGKRKTEMPPHLFAVSDEAYRNMLQDHENQSMLITGESGAGKTENTKKVICYFAAVGASQQEGGAEVDPNKKKVTLEDQIVQTNPVLEAFGNAKTVRNNNSSRFGKFIRIHFNKHGRLASCDIEHYLLEKSRVIRQAPGERCYHIFYQIYSDFRPELKKELLLDLPIKDYWFVAQAELIIDGIDDVEEFQLTDEAFDILNFSAVEKQDCYRLMSAHMHMGNMKFKQRPREEQAEPDGTDEAEKASNMYGIGCEEFLKALTKPRVKVGTEWVSKGQNCEQVNWAVGAMAKGLYSRVFNWLVKKCNLTLDQKGIDRDYFIGVLDIAGFEIFDFNSFEQLWINFVNEKLQQFFNHHMFVLEQEEYAREGIQWVFIDFGLDLQACIELIEKPLGIISMLDEECIVPKATDLTLASKLVDQHLGKHPNFEKPKPPKGKQGEAHFAMRHYAGTVRYNCLNWLEKNKDPLNDTVVSAMKQSKGNDLLVEIWQDYTTQEEAAAKAKEGGGGGKKKGKSGSFMTVSMLYRESLNNLMTMLNKTHPHFIRCIIPNEKKQSGMIDAALVLNQLTCNGVLEGIRICRKGFPNRTLHPDFVQRYAILAAKEAKSDDDKKKCAEAIMSKLVNDGSLSEEMFRIGLTKVFFKAGVLAHLEDIRDEKL
notes: Myosin heavy chain B (MHC-B, UNC-54), C. elegans muscle myosin, motor domain residues 1-790, cloned from cDNA into pACEBac1; also called myosin; MHC-B head domain; source: High Five insect cells, purified (NiNTA, Streptactin wash fractions, SEC) or co-purified with UNC-45; not shown: His6, C-terminal, kept
